From patent US20150183877A1 (Eli Lilly, published 2015)

The binders below were run against T1, hEGFR-Fc (Cat. #344-ER-050, R&D systems) (human, UniProt P00533 25-645) (assay: EGFR/HER-2 sandwich ELISA: hEGFR-Fc coat, compound titrated, detection with 0.2 µg/mL hHER-2-Histag and anti-His-HRP).
T1 construct: Bought reagent; not shown: Fc part of the bought fusion
Method: (§1) Specifically, clear 96-well round bottom high binding microtiter plates (Greiner) are coated overnight at 2-8° C. with 50 μL/well 1 μg/mL hEGFR-Fc (Cat. #344-ER-050, R&D systems) in a 50 mM Na₂CO₃ pH 9.4 buffer. The plate is washed 4× times with PBST and blocked with 100 μL/well casein buffer (Pierce) for 1 hr at 37° C. The plate is then washed 4× times with PBST and test compounds are added at 50 μL/well and 30 μg/mL […] and serially diluted 1:2 down the plate. The test compounds are incubated on the plate for 1 hr at 37° C. The plate is washed 4× times with PBST and 50 μL/well 0.2 μg/mL hHER-2-Histag (Sino Biologics) is added for 1 hr at 37° C. The plate is then washed 4× times with PBST followed by the addition of a 50 μL/well secondary anti-Histag-HRP antibody (PENTA-His-HRP, Qiagen) diluted 1:1000 in PBST. The secondary antibody is incubated for 1 hr at 37° C. The plate is then washed 4× times with PBST and 100 μL/well 1-component 3,3′,5,5′-Tetramethylbenzidine (TMB) substrate is added (KPL laboratories). After approximately 10 minutes, 100 μL/well 1% H₃PO₄ (in H₂O) is added to quench the reaction. Absorbance (450 nm) of every well in the plate is read using a SpectraMax UV plate reader (Molecular Devices).

Binder	EC50
C-mTCRpG1 (bispecific antibody, human IgG1, kappa, Anti-EGFR (matuzumab TCR-Fab) / anti-HER-2 (pertuzumab IgG-Fab) IgG-(Fab)2, Format 1) heavy: not shown light 1: not shown light 2: DIQMTQSPSSLSASVGDRVTITCSASSSVTYMYWYQQKPGKAPKLLIYDTSNLASGVPSRFSGSGSGTDYTFTISSLQPEDIATYYCQQWSSHIFTFGQGTKVEIKKVFPPEVAVFEPSEAEISHTQKATLVCLATGFFPDHVELSWWVNGKEVHSGVSTDPQPLKEQPALNDSRYCLSSRLRVSATFWQNPRNHFRCQVQFYGLSENDEWTQDRAKPVTQIVSAEAWGRADC	< 1 nM
N-mTCRpG1 (bispecific antibody, human IgG1, kappa, Anti-EGFR (matuzumab TCR-Fab) / anti-HER-2 (pertuzumab IgG) IgG-(Fab)2, Format 3; also called N-mTCRpG1ds) heavy: not shown light 1: not shown light 2: DIQMTQSPSSLSASVGDRVTITCSASSSVTYMYWYQQKPGKAPKLLIYDTSNLASGVPSRFSGSGSGTDYTFTISSLQPEDIATYYCQQWSSHIFTFGQGTKVEIKKVFPPEVAVFEPSEAEISHTQKATLVCLATGFFPDHVELSWWVNGKEVHSGVSTDPQPLKEQPALNDSRYCLSSRLRVSATFWQNPRNHFRCQVQFYGLSENDEWTQDRAKPVTQIVSAEAWGRADC	2 nM

These binders were tested against T2, IL-17 (SEQ ID NO:80), hIL-17 with C-terminal FlagHis tag (human) (assay: SPR (Biacore 3000): antibody captured on anti-human Fc, saturating IL-17 injected; RU of IL-17 per RU captured, relative to WT IgG).
T2 construct: The entry holds the IL-17 part and the Flag-His tag
Method: The extent of HC/LC assembly is assessed using a kinetic Biacore experiment. Briefly, kinetic surface Plasmon resonance (SPR) experiments are performed using a Biacore 3000 (GE Healthcare). IgG-TCR proteins are captured onto CM5 sensorchip surfaces with an immobilized goat anti-human IgG-Fc polyclonal antibody (Jackson ImmunoResearch, Cat. #109-005-098). The goat polyclonal antibody immobilization is achieved by injecting the protein (at 50 μg/mL, pH 5) over an NHS/EDC activated sensorchip surface followed by blocking with ethanolamine (as described by manufacturer). The IgG or IgG-TCRs are captured onto the anti-human Fc sensorchip surface by injecting 10 μL of protein at 0.1 and 0.5 mg/mL using a 2 […]. Flow rates are increased to 10 μL/min followed by secondary 30 μL injections of IL-17 (SEQ ID NO:80) at 10 and 50 nM. Following a 15 minute dissociation period, the flow rate is increased to 60 μL/min and sensorchip surfaces are regenerated using two consecutive 10 μL injections of 0.1 M glycine, pH 2.0.
The experiment measures the percent activity by relating the amount of captured IgG or IgG-TCR (based on resonance units) with the secondary response generated using a saturating level of IL-17. The percent activity of each IgG-TCR is calculated based on a comparison with the WT IgG: […]

T2 sequence (chain, as listed by the source limits assumed): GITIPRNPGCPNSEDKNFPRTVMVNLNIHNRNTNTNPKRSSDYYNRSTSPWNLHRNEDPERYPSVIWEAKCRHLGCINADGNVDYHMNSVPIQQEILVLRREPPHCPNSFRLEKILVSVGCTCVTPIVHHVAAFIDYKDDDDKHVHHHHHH

Binder	Activity by kinetic Biacore (percent activity relative to WT IgG)
anti-human IL-17 IgG4/κ antibody (antibody, Parent IgG4/kappa antibody of the IgG-TCR constructs TCR1-TCR8; also called Anti-IL17/IgG4; Anti-17 IgG4) heavy: not shown light: DIVMTQTPLSLSVTPGQPASISCRSSRSLVHSRGNTYLHWYLQKPGQSPQLLIYKVSNRFIGVPDRFSGSGSGTDFTLKISRVEAEDVGVYYCSQSTHLPFTFGQGTKLEIKRTVAAPSVFIFPPSDEQLKSGTASVVCLLNNFYPREAKVQWKVDNALQSGNSQESVTEQDSKDSTYSLSSTLTLSKADYEKHKVYACEVTHQGLSSPVTKSFNRGEC	100%
TCR2 (anti-IL-17 IgG-TCR, Cα for CH1, Cβ for CL) (antibody, IgG-TCR format with IgG4PAA hinge-Fc) heavy: not shown light: DIVMTQTPLSLSVTPGQPASISCRSSRSLVHSRGNTYLHWYLQKPGQSPQLLIYKVSNRFIGVPDRFSGSGSGTDFTLKISRVEAEDVGVYYCSQSTHLPFTFGQGTKLEIKEDLNKVFPPEVAVFEPSEAEISHTQKATLVCLATGFFPDHVELSWWVNGKEVHSGVSTDPQPLKEQPALNDSRYCLSSRLRVSATFWQNPRNHFRCQVQFYGLSENDEWTQDRAKPVTQIVSAEAWGRADCGFTS	35%
TCR4 (anti-IL-17 IgG-TCR, truncated Cα for CH1, truncated Cβ for CL) (antibody, IgG-TCR format with IgG4PAA hinge-Fc) heavy: not shown light: DIVMTQTPLSLSVTPGQPASISCRSSRSLVHSRGNTYLHWYLQKPGQSPQLLIYKVSNRFIGVPDRFSGSGSGTDFTLKISRVEAEDVGVYYCSQSTHLPFTFGQGTKLEIKKVFPPEVAVFEPSEAEISHTQKATLVCLATGFFPDHVELSWWVNGKEVHSGVSTDPQPLKEQPALNDSRYCLSSRLRVSATFWQNPRNHFRCQVQFYGLSENDEWTQDRAKPVTQIVSAEAWGRADCGFTS	54%
TCR6 (anti-IL-17 IgG-TCR, Cα for CH1, truncated Cβ for CL) (antibody, IgG-TCR format with IgG4PAA hinge-Fc) heavy: not shown light: DIVMTQTPLSLSVTPGQPASISCRSSRSLVHSRGNTYLHWYLQKPGQSPQLLIYKVSNRFIGVPDRFSGSGSGTDFTLKISRVEAEDVGVYYCSQSTHLPFTFGQGTKLEIKKVFPPEVAVFEPSEAEISHTQKATLVCLATGFFPDHVELSWWVNGKEVHSGVSTDPQPLKEQPALNDSRYCLSSRLRVSATFWQNPRNHFRCQVQFYGLSENDEWTQDRAKPVTQIVSAEAWGRADCGFTS	35%
TCR8 (anti-IL-17 IgG-TCR, truncated Cα for CH1, Cβ for CL) (antibody, IgG-TCR format with IgG4PAA hinge-Fc) heavy: not shown light: DIVMTQTPLSLSVTPGQPASISCRSSRSLVHSRGNTYLHWYLQKPGQSPQLLIYKVSNRFIGVPDRFSGSGSGTDFTLKISRVEAEDVGVYYCSQSTHLPFTFGQGTKLEIKEDLNKVFPPEVAVFEPSEAEISHTQKATLVCLATGFFPDHVELSWWVNGKEVHSGVSTDPQPLKEQPALNDSRYCLSSRLRVSATFWQNPRNHFRCQVQFYGLSENDEWTQDRAKPVTQIVSAEAWGRADCGFTS	48%
TCR3 (anti-IL-17 IgG-TCR, truncated Cβ for CH1, truncated Cα for CL) (antibody) heavy: not shown light: DIVMTQTPLSLSVTPGQPASISCRSSRSLVHSRGNTYLHWYLQKPGQSPQLLIYKVSNRFIGVPDRFSGSGSGTDFTLKISRVEAEDVGVYYCSQSTHLPFTFGQGTKLEIKIQNPDPAVYQLRDSKSSDKSVCLFTDFDSQTNVSQSKDSDVYITDKTVLDMRSMDFKSNSAVAWSNKSDFACANAFNNSIIPEDTFFPSPESSCDVK	17%

What follows are binders tested against T3, hHER-2-Histag (Sino Biologics) (human, UniProt P04626 23-652) (assay: EGFR/HER-2 sandwich ELISA: hEGFR-Fc coat, test compound, detection with hHER-2-Histag and anti-His-HRP).
T3 construct: Bought reagent; not shown: His tag
Method: as §1

Binder	binding result
mTCR-G1(-) (antibody, human IgG1, Matuzumab Fv in IgG-TCR format (anti-EGFR IgG-TCR control)) heavy: not shown light: DIQMTQSPSSLSASVGDRVTITCSASSSVTYMYWYQQKPGKAPKLLIYDTSNLASGVPSRFSGSGSGTDYTFTISSLQPEDIATYYCQQWSSHIFTFGQGTKVEIKKVFPPEVAVFEPSEAEISHTQKATLVCLATGFFPDHVELSWWVNGKEVHSGVSTDPQPLKEQPALNDSRYCLSSRLRVSATFWQNPRNHFRCQVQFYGLSENDEWTQDRAKPVTQIVSAEAWGRADC	no binding (tested: 30 µg/mL (20 nM), serially diluted 1:2)
